Patent US20110028686A1 (published 2011)
Where two headings read alike, the source gives them in different places. Square brackets hold non-standard residues; d marks the D form. Primed or numbered codes have the meaning given here. Ends that are not written are not given here. * marks the point of attachment. acetamidofluorescein″ = acetamidofluorescein (5-iodoacetamidofluorescein attached to the C-terminal Cys); Fluorescein(5-NHCOCH2) = O=C(C*)Nc1ccc2c(c1)C(=O)OC21c2ccc(O)cc2Oc2cc(O)ccc21; pS = N[C@@H](COP(=O)(O)O)C(=O)O

B1: p4102 (designed binder)
peptide: GPSQPTYPGDDAPVEDLIRFVSRLRYIADLINRYC(5‑iodoacetamidofluorescein)-NH2
notes: Mutant with a single amino acid deletion in the alpha-helix; Amino terminal portion from aPP (e.g., residues 1-19); also called p4124 (labelled form, by order and mass)
B2: PPKID6 S18E (designed binder)
peptide: GISWPTFEGDDAPVRRLEFFYILLDLYLDAPGVC(Fluorescein(5-NHCOCH2))-NH2
modifications: N-terminus assumed
SMILES: CC[C@H](C)[C@H](NC(=O)CN)C(=O)N[C@@H](CO)C(=O)N[C@@H](Cc1c[nH]c2ccccc12)C(=O)N1CCC[C@H]1C(=O)N[C@H](C(=O)N[C@@H](Cc1ccccc1)C(=O)N[C@@H](CCC(=O)O)C(=O)NCC(=O)N[C@@H](CC(=O)O)C(=O)N[C@@H](CC(=O)O)C(=O)N[C@@H](C)C(=O)N1CCC[C@H]1C(=O)N[C@H](C(=O)N[C@@H](CCCNC(=N)N)C(=O)N[C@@H](CCCNC(=N)N)C(=O)N[C@@H](CC(C)C)C(=O)N[C@@H](CCC(=O)O)C(=O)N[C@@H](Cc1ccccc1)C(=O)N[C@@H](Cc1ccccc1)C(=O)N[C@@H](Cc1ccc(O)cc1)C(=O)N[C@H](C(=O)N[C@@H](CC(C)C)C(=O)N[C@@H](CC(C)C)C(=O)N[C@@H](CC(=O)O)C(=O)N[C@@H](CC(C)C)C(=O)N[C@@H](Cc1ccc(O)cc1)C(=O)N[C@@H](CC(C)C)C(=O)N[C@@H](CC(=O)O)C(=O)N[C@@H](C)C(=O)N1CCC[C@H]1C(=O)NCC(=O)N[C@H](C(=O)N[C@@H](CSCC(=O)Nc1ccc2c(c1)C(=O)OC21c2ccc(O)cc2Oc2cc(O)ccc21)C(N)=O)C(C)C)[C@@H](C)CC)C(C)C)[C@@H](C)O
B3: PPKID6^P (designed binder)
peptide: GISWPTFEGDDAPVRRL[pS]FFYILLDLYLDAPGVC(Fluorescein(5-NHCOCH2))-NH2
modifications: N-terminus assumed
SMILES: CC[C@H](C)[C@H](NC(=O)CN)C(=O)N[C@@H](CO)C(=O)N[C@@H](Cc1c[nH]c2ccccc12)C(=O)N1CCC[C@H]1C(=O)N[C@H](C(=O)N[C@@H](Cc1ccccc1)C(=O)N[C@@H](CCC(=O)O)C(=O)NCC(=O)N[C@@H](CC(=O)O)C(=O)N[C@@H](CC(=O)O)C(=O)N[C@@H](C)C(=O)N1CCC[C@H]1C(=O)N[C@H](C(=O)N[C@@H](CCCNC(=N)N)C(=O)N[C@@H](CCCNC(=N)N)C(=O)N[C@@H](CC(C)C)C(=O)N[C@@H](COP(=O)(O)O)C(=O)N[C@@H](Cc1ccccc1)C(=O)N[C@@H](Cc1ccccc1)C(=O)N[C@@H](Cc1ccc(O)cc1)C(=O)N[C@H](C(=O)N[C@@H](CC(C)C)C(=O)N[C@@H](CC(C)C)C(=O)N[C@@H](CC(=O)O)C(=O)N[C@@H](CC(C)C)C(=O)N[C@@H](Cc1ccc(O)cc1)C(=O)N[C@@H](CC(C)C)C(=O)N[C@@H](CC(=O)O)C(=O)N[C@@H](C)C(=O)N1CCC[C@H]1C(=O)NCC(=O)N[C@H](C(=O)N[C@@H](CSCC(=O)Nc1ccc2c(c1)C(=O)OC21c2ccc(O)cc2Oc2cc(O)ccc21)C(N)=O)C(C)C)[C@@H](C)CC)C(C)C)[C@@H](C)O
notes: also called PPKID6 (phosphorylated)
B4: peptide C^U (peptide)
peptide: RRLSFFYILLDLYLDAPGVC(acetamidofluorescein)-NH2
notes: also called Peptide C (unphosphorylated)
B5: p4100 (designed binder)
peptide: GPSQPTYPGDDAPVEDLIRFVGRLLRYFGDEINRYC(5‑iodoacetamidofluorescein)-NH2
notes: As for p4099: amino terminal portion from aPP (e.g., residues 1-19); also called p4122 (labelled form, by order and mass)
B6: p4101 (designed binder)
peptide: GPSQPTYPGDDAPVEDLIRFVGRLLAYFGDDINRYC(5‑iodoacetamidofluorescein)-NH2
notes: As for p4099: amino terminal portion from aPP (e.g., residues 1-19); also called p4123 (labelled form, by order and mass)

Tests used:
[1] = target: T1, HisKIX (UniProt P45481 586-672); test: FP with HisKIX; end of the range assigned by Table 1
T1 construct: range 586-672; the residue numbers fit mouse CBP; also called His-tagged CBP KIX domain; CBP KIX; not shown: amino-terminal hexahistidine tag and linker of pET15b

[2] = target: T1, HisKIX; test: FP, fluorescein-labelled peptide titrated with HisKIX, 25 C
[3] = target: T2, Human recombinant Bcl-2 (1-205), soluble GST-fusion (Santa Cruz Biotechnology) (human, UniProt P10415 1-205); test: fluorescence emission titration, fluorescein-labelled peptide + serially diluted Bcl-2, 4 C, PBS
T2 construct: Bought; also called GST-Bcl-2; not shown: glutathione S-transferase (GST) fusion partner

[4] = target: T1, HisKIX; test: FP with HisKIX
[5] = target: T3, CBP KIX, wild type (Example 20) (UniProt P45481 586-665, limits assumed); test: FP with CBP KIX
T3 construct: domain: KIX; also called wild type CBP KIX; CBP MX

[6] = target: T3, CBP KIX, wild type (Example 20); test: FP, fluorescein-labelled PPKID4^P variant titrated with CBP KIX
[7] = target: T1, HisKIX; test: FP, fluorescein-labelled peptide titrated with HisKIX, 25 C; remark: listed apart in the source
[8] = target: carbonic anhydrase II (Sigma); test: FP, 50 nM fluorescein-labelled peptide titrated with carbonic anhydrase II, 25 C
carbonic anhydrase II (Sigma), sequence (P00921 2-260): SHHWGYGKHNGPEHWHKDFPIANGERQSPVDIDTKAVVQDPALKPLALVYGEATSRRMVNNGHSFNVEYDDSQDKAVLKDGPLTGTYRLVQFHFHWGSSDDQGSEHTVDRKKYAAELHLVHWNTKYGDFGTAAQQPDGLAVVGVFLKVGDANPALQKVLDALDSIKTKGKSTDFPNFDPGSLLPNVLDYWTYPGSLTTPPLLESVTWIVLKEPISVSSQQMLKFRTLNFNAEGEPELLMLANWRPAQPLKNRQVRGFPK

T2 sequence (P10415 1-205): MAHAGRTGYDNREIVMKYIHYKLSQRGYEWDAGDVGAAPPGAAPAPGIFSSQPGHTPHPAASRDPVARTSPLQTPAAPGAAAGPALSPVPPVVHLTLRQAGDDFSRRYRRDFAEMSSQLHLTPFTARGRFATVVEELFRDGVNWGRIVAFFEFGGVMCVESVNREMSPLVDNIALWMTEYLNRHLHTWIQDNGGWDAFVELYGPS
T3 sequence (P45481 586-665 limits assumed): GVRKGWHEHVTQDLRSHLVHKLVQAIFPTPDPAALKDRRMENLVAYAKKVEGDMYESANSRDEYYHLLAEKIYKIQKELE
T1 sequence (P45481 586-672): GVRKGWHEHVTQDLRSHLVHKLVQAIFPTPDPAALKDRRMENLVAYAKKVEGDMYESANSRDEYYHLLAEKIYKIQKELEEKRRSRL

Binder	ΔΔG relative to wild type PPKID4^P [5] [kcal/mol]	Kd [6] [nM]	other results
GASPHTSSGDDAPVRRLSFFDILLDLYLDAPGVC(acetamidofluorescein)-NH2 (designed binder, not fully specified, also called PPKID3 (unphosphorylated)) [PPKID3^U]	–	–	fold change in affinity against peptide C^U [1]: 1 to 3 fold; ΔΔG relative to peptide C^U [1]: -0.7 kcal/mol; Kd [2]: 6700 nM
B1	–	–	Kd [3]: 3700 nM
B2	–	–	fold decrease in affinity against PPKID6^U [4]: 7 fold; ΔΔG relative to PPKID6^U [4]: 1.2 kcal/mol; Kd [2]: 10900 nM
B3	–	–	fold enhancement in affinity over unphosphorylated PPKID6 [4]: 2 fold; ΔΔG relative to unphosphorylated PPKID6 [4]: -0.5 kcal/mol; Kd [2]: 624 nM
GPSQPTYPGDDAPVRRL[pS]FAYILLDLYLDAPGVC(acetamidofluorescein″)-NH2 (designed binder) [PPKID4^P F20A]	0.85	2550	–
GASQPTYPGDDAPVRRL[pS]FFYILLDLYLDAPGVC(acetamidofluorescein″)-NH2 (designed binder) [PPKID4^P P2A]	0.21	870	–
GPSQPTYPGDDAPVRRL[pS]FFYILLDLYADAPGVC(acetamidofluorescein″)-NH2 (designed binder) [PPKID4^P L28A]	0.18	830	–
GPSQPTYAGDDAPVRRL[pS]FFYILLDLYLDAPGVC(acetamidofluorescein″)-NH2 (designed binder) [PPKID4^P P8A]	0.33	1070	–
GPSQPTYPGDDAPVRRL[pS]FFYILADLYLDAPGVC(acetamidofluorescein″)-NH2 (designed binder) [PPKID4^P L24A]	0.38	1160	–
GPSQPTYPGDDAPVRRA[pS]FFYILLDLYLDAPGVC(acetamidofluorescein″)-NH2 (designed binder) [PPKID4^P L17A]	0.07	680	–
GPSQATYPGDDAPVRRL[pS]FFYILLDLYLDAPGVC(acetamidofluorescein″)-NH2 (designed binder) [PPKID4^P P5A]	0.3	1020	–
GPSQPTYPGDDAPVRRL[pS]FFYILLDLALDAPGVC(acetamidofluorescein″)-NH2 (designed binder) [PPKID4^P Y27A]	0.96	3090	–
B4	–	–	Kd [7]: 21500 nM; ΔΔG relative to KID-B^U [4]: > -1.5 kcal/mol; Kd [2]: 21500 nM; Kd [8]: 66000 nM
B5	–	–	Kd [3]: 401 nM
B6	–	–	Kd [3]: 811 nM
